Laboratory results taken from patent publication US20220025023A1 (AC IMMUNE, published 2022).
Positions count from the first letter of the chain named. Where no end group is shown, it is not given here.

B1: ACI-7062-410H3-Ab1 (antibody, IgG1, V domains shown)
VH: DVQLVESGGGLVQPGGSRRLSCAASGFTFSSFGMHWVRQAPEKGLEWVAYIRSGSDIIYYADSVKGRFTISRDNPENTLFLQMTSLRSEDTAMYYCARSGTTVPFDYWGQGTSLTVSS
VL: DIVMTQSPSSLAMSVGQKVTMSCKSSQSLLNSGNQKNYLAWYQQKPGQSPELLLYFASTRASGVPDRFIGSGSGTDFTLTISSVQAEDLADYFCQQHYSIPLTFGAGTKLELKR
notes: also called 410H3B9; clone 7
B2: ACI-7062-406E3-Ab1 (antibody, IgG2a, V domains shown)
VH: QVTLKESGPAILQPSQTLSLTCSFSGFSLTTYGIGVGWIRQPSGKGLEWLAHIWWNDNKYYNTALKSRLTVSKDTSNNQVFLKIASVDTADTATYYCARVYGNLYYFAYWGQGTTLTVSS
VL: DVLMTQTPLSLPVSLGDRASISCRSSQSIVHRSGNTYLEWYLQKPGQSPKLLIYKVSNRFSGVPDRFSGSGSGTDFTLKISRVEAEDLGVYYCFQGSHVPTFGAGTKLELKR
notes: also called 406E3D5; clone 5
B3: ACI-7062-416A11-Ab1 (antibody, IgG2a, V domains shown)
VH: B2 VH with A10G, P14S, T30S, V71I, T92A, A108G
VL: B2 VL with R32S, H98R
notes: also called 416A11B3; clone 18
B4: ACI-7062-406E3-Ab2 (antibody, IgG2a, V domains shown)
VH: B2 VH
VL: B2 VL
notes: also called 406E3G10; clone 6
B5: ACI-7062-412A7-Ab1 (antibody, IgG2b, V domains shown)
VH: B1 VH
VL: B1 VL
notes: also called 412A7B7; clone 9

biological target: T1, recombinant human full-length TDP-43 (human, UniProt Q13148 1-414); assay: SPR avidity (Biacore T200), TDP-43 monomer immobilised, antibody as analyte, 1:1 model
T1 construct: Recombinant full-length protein; also called FL TDP-43; recFL TDP-43
T1 sequence (Q13148 whole entry): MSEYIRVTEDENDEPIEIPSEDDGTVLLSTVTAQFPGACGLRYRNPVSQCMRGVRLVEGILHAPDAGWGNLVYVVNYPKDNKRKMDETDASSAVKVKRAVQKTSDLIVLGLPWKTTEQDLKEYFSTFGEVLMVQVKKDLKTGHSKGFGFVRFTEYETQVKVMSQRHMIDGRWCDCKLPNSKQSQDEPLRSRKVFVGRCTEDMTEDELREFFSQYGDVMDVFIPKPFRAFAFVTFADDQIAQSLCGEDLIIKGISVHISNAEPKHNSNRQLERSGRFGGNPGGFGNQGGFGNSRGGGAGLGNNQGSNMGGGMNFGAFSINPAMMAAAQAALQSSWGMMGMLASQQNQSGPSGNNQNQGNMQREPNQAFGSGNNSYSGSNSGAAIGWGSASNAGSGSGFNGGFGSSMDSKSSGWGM
Protocol: (§1) Avidity measurements were performed on an SPR instrument (Biacore T200, GE Healthcare Life Sciences) using CM5 Series S sensor chips. Recombinant human FL TDP-43 monomers or aggregated recombinant human FL TDP-43 was immobilized on a CM5 chip using amine coupling, injecting at a flow rate of 5 μl/min for 420 seconds. Conditions were optimized so that less than 200 RU protein was immobilized. Binding of the antibodies and the control antibody (2E2-D3) were obtained by injecting at: 1.37, 4.11, 12.33, 37, 111, and 333 nM in 1×PBS P+ at a flow rate of 50 μl/min for 90 s contact time and 600 s dissociation phase, with three regeneration cycles of the ligand surface by 10 mM Glycine-HCl (pH 1.7). Kinetics were analyzed using a 1:1 fitting model (see FIG. 8).

Row | Binder | Kd [pM]
1 | B1 | 6000
2 | B2 | 800
3 | B3 | 2400
4 | B4 | 300
5 | B5 | 1000

biological target: T1, recombinant human full-length TDP-43; assay: Luminex bead assay, antibody serial dilution, FL TDP-43 beads

Row | Binder | EC50 [pM]
6 | B1 | 30
7 | B2 | < 10
8 | B3 | 15
9 | B4 | 10
10 | B5 | 30

Biological target: T2, TDP-1 peptide (human)
T2 construct: Immunogen peptide; conjugated to Luminex beads in the assay; also called TDP-43 aa 212-272
T2 peptide: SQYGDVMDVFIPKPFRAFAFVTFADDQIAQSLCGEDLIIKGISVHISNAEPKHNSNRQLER
Assay: Luminex bead assay, antibody serial dilution, TDP-1 peptide beads

Row | Binder | EC50 [pM]
11 | B1 | < 10
12 | B2 | < 10
13 | B3 | < 10
14 | B4 | < 10
15 | B5 | < 10

Biological target: T3, TDP-3 peptide (human)
T3 construct: Irrelevant control peptide; conjugated to Luminex beads in the assay; also called TDP-43 aa 310-370; irrelevant target
T3 peptide: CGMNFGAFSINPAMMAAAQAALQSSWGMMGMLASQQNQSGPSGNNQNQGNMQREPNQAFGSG
Assay: Luminex bead assay, TDP-3 peptide beads (irrelevant target)

Row | Binder | binding result
16 | B1 | no binding
17 | B2 | no binding
18 | B3 | no binding
19 | B4 | no binding
20 | B5 | no binding

biological target: T1, recombinant human full-length TDP-43; assay: SPR affinity (Biacore 8K), antibody captured on anti-mouse IgG, TDP-43 monomer as analyte, single cycle kinetics, 1:1 model
Protocol: Binding affinity to FL TDP-43 was evaluated by determining the dissociation constant (KD) using surface plasmon resonance (SPR; Biacore 8K, GE Healthcare Life Sciences). Anti-mouse IgG was immobilized on a CM5 Series S sensor chip (GE Healthcare Life Sciences) by amine coupling. Immobilization of andi-IgG was done at a concentration of 30 μg/ml in 10 mM sodium acetate (pH 5.5) with a flow rate of 10 μl/min for 500 s. The purified antibodies being tested, and the control antibody (2E2-D3), were injected at a concentration of 1 μg/ml at a flow rate of 10 μl/min for 500 s in 10 mM Na-acetate (pH 5.5). To evaluate KDs, recombinant human FL TDP-43 monomer analyte was injected at […] starting from 400 nM and diluting down to 1.6 nM using single cycle kinetics. The protein analyte was injected at a flow rate of 20 μl/min for 600 s contact time and a 1200 s dissociation phase, without intermediate regeneration steps. Result obtained from kinetics was evaluated using a 1:1 binding model analysis.

Row | Binder | Kd [pM]
21 | B1 | 242000
22 | B2 | 193000
23 | B3 | 307000
24 | B4 | 101000
25 | B5 | 66100

Biological target: T4, TP-26 (also: biotinylated, site not given here)
T4 construct: also called TP-26 peptide
T4 peptide: FRAFAFVTFADDQIA
Assay: indirect ELISA, biotinylated 15-mer on streptavidin plate, hybridoma supernatant
Protocol: (§2) Serum-free supernatants were harvested from stable hybridomas. The supernatants containing antibodies of interest were then screened by an indirect ELISA assay to determine epitopes. Epitopes were mapped using a library of TDP-43 15-mer peptides. Briefly, 96-well streptavidin-coated 96-well ELISA plates were incubated with 5 μg/mL of biotinylated 15-mer peptides spanning the amino acids (aa) 199-285 of human TDP-43 with 9 aa offset and 6 aa overlap. Plates were washed thoroughly with 0.05% Tween-20/PBS and then blocked with 1% bovine serum albumin (BSA) in 0.05% Tween-20/PBS for 1 hour at 37° C. The antibody contained in the hybridoma supernatant was then added at the indicated dilutions, and incubated for 2 hours at 37° C. after which the plates were washed as described previously. An AP-conjugated anti-mouse IgG secondary antibody (Jackson ImmunoResearch Laboratories, United Kingdom) was added at 1/1000 dilution in 0.05% Tween-20/PBS for 1 hour at 37° C. After the final wash, plates were incubated with pNPP (Sigma-Aldrich, Switzerland) an AP substrate solution, and read at 405 nm using an ELISA plate reader (Tecan).

Row | Binder | binding result
26 | B1 | no binding
27 | B2 | no binding
28 | B3 | no binding
29 | B4 | no binding
30 | B5 | no binding

Biological target: T5, TP-29 (also: biotinylated, site not given here)
T5 construct: also called TP-29 peptide
T5 peptide: ISVHISNAEPKHNSN
Assay: as above
Protocol: as §2

Row | Binder | binding result
31 | B1 | no binding
32 | B2 | no binding
33 | B3 | no binding
34 | B4 | no binding
35 | B5 | no binding

Biological target: T6, TP-30 (also: biotinylated, site not given here)
T6 construct: also called TP-30 peptide
T6 peptide: PKHNSNRQLERSGRF
Assay: as above
Protocol: as §2

Row | Binder | binding result
36 | B1 | no binding
37 | B2 | no binding
38 | B3 | no binding
39 | B4 | no binding
40 | B5 | no binding

Biological target: T7, TP-31 (also: biotinylated, site not given here)
T7 construct: also called TP-31 peptide
T7 peptide: ERSGRFGGNPGGFGN
Assay: as above
Protocol: as §2

Row | Binder | binding result
41 | B1 | no binding
42 | B2 | no binding
43 | B3 | no binding
44 | B4 | no binding
45 | B5 | no binding

Biological target: T8, TP-23 (also: biotinylated, site not given here)
T8 construct: also called TP-23 peptide
T8 peptide: TEDMTEDELREFFSQ
Assay: as above
Protocol: as §2

Row | Binder | binding result
46 | B1 | no binding
47 | B2 | no binding
48 | B3 | no binding
49 | B4 | no binding
50 | B5 | no binding

Biological target: T9, TP-27 (also: biotinylated, site not given here)
T9 construct: also called TP-27 peptide
T9 peptide: ADDQIAQSLCGEDLI
Assay: as above
Protocol: as §2

Row | Binder | binding result
51 | B1 | no binding
52 | B2 | no binding
53 | B3 | no binding
54 | B4 | no binding
55 | B5 | no binding

Biological target: T10, TP-28 (also: biotinylated, site not given here)
T10 construct: also called TP-28 peptide
T10 peptide: CGEDLIIKGISVHIS
Assay: as above
Protocol: as §2

Row | Binder | binding result
56 | B1 | no binding
57 | B2 | no binding
58 | B3 | no binding
59 | B4 | no binding
60 | B5 | no binding

biological target: T11, BSA (bovine, UniProt P02769); assay: indirect ELISA, control coat in the 15-mer series, hybridoma supernatant
T11 construct: not specified; also called bovine serum albumin
T11 sequence (P02769 25-607 limits assumed): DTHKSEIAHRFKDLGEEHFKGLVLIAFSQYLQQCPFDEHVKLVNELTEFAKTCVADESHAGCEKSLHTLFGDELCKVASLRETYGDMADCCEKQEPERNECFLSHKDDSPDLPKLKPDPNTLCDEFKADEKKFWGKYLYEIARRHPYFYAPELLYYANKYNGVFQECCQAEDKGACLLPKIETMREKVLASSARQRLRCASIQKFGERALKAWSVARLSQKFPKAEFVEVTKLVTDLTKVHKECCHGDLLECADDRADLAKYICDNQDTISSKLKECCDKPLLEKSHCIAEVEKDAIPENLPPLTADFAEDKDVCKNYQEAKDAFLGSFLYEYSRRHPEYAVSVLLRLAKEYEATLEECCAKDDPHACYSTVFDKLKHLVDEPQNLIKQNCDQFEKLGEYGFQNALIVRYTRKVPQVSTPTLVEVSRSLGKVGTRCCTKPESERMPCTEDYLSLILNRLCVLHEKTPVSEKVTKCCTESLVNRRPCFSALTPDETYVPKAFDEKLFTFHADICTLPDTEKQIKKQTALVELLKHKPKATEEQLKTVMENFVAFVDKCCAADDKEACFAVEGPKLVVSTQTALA

Row | Binder | binding result
61 | B1 | no binding
62 | B2 | no binding
63 | B3 | no binding
64 | B4 | no binding
65 | B5 | no binding

biological target: T12, aggregated recombinant human FL TDP-43 (human, UniProt Q13148 1-414); assay: SPR avidity (Biacore T200), aggregated TDP-43 immobilised, antibody as analyte, 1:1 model
T12 construct: also called TDP-43 aggregates
T12 sequence (Q13148 whole entry): as the sequence (Q13148 whole entry) above
Protocol: as §1

Row | Binder | Kd [pM]
66 | B1 | 19200
67 | B2 | 200
68 | B3 | 1200
69 | B4 | 400
70 | B5 | 300
